Results taken from the nanobody polyreactivity screen of Harvey et al. (2022).

assay: yeast display, Sf9 membrane polyspecificity reagent, FACS + sequencing; frameworks hold sequencing errors
In short: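 Synthetic nanobody libraries on Saccharomyces cerevisiae BJ5465 were galactose-induced for 36–48 hours, stained 1 hour at 4 °C with 10% biotinylated, detergent-solubilized Sf9 membrane reagent and enriched on streptavidin microbeads. FACS then separated cells into low and high (top ~1%) gates by anti-HA (expression) and streptavidin (reagent binding) fluorescence. Genes were colony-PCR amplified, MiSeq 2 × 250 sequenced and CDR-length filtered. A clone's polyreactivity label is that of its gate of origin.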

Sequence | polyreactivity (PSR sort gate)
QVQLVESGGGLVQAGGSLRLSFAASGSIFYRNAMGWYRQAPGKERELVASISASGGRTYYADSVKGRFTISRDNGKNTVYLQMNSVKPEDTAFYYCNKVSPVAYWYSWGINFDYWGQGTQVTVSS | high polyreactivity
QVQLVESGGGLVQAGGSLRLSFAASGSNFGPNGMGWYRQAPGKERELVARIDRIGGGTYYADSVKGRFTISRDNAKNNVYLKMNSLKPEETAVYYCAKSGSAYWHSGWSVGFDYWGQGTQVTLSS | low polyreactivity
QVQLVESGGGLVQAGGSLRLSFAASGSTFDWYVMGWYRQAPGKERELVAAINQGSGSTYYADSVKGRFTISRDNAKNTVYFQMNSLKPEDTAVYYCAADRYGAGYLYWPYDYWGQGTQVTVSS | low polyreactivity
QVQLVESGGGLVQAGGSLRLSFAASGSTFGVNAMGWYRQAPGKERELVAVITRSGGSTYYADSVKGRFTISRDNAKNTVYLQMNSLKPEDTAVYYCGKSGVVDWGQGTQVTVSS | low polyreactivity
QVQLVESGGGLVQAGGSLRLSFAASGSTFNVHAMGGYRQAPGKERELVAAITSSGGSTNYADSVKGRFTISRDTAKNSVYLQLNSLKPEDTAVYYCAADAIYFSRLNLGYDYWGQGTQVTVSS | low polyreactivity
QVQLVESGGGLVQAGGSLRLSFAAYGSIFWGYAMGWYRQAPGKERELVAAISSSGGNTYYADSVKGRFTISRDNAKNTVYLQMNSLKPEDTAVYYCAATPEFYGGKITDVYSQYGYWGQGTQVTVSS | low polyreactivity
QVQLVESGGGLVQAGGSLRLSGAASGFIFAAYAMGWYRQAPGKERELVASISNGGGSTYYADSVKGRYTISRDNAKNTVYLQMNSQNPEVSAVYYCNARQYYAVTRKYYVRLDYWGQGTQVTVES | high polyreactivity
QVQLVESGGGLVQAGGSLRLSGAASGGTFDYYAMGRYRQAPGKERELVAAISTSGGRTYYADSVKGRFTISRDNAKYTVYLQMNSLKPEDTAVYYCAALSPRAKYASFYYWGQGTQVTVSS | high polyreactivity
QVQLVESGGGLVQAGGSLRLSGAASGRIFQRYVMGWYRQAPGKERELVAAISYSGARTYYADSVKGRFTISRDNAKNTVYLQMNSLKPEDTAVYYCAARIRNWPAMDYWGQGTQETVSS | high polyreactivity
QVQLVESGGGLVQAGGSLRLSGAASGRTFRGNVMGWYRQAPGKEREFVAAITKSDGSTYYADSVKGRFTISRDNAKNTVYLQMNSLKPEDTAVYYCAARTARTGWPWFRYDYWGQGTQVTVSS | low polyreactivity
QVQLVESGGGLVQAGGSLRLSGAASGRTFRKYAMGWYRQAPGKERELVAAISWSGGSTYYANSVKGRFTISRDNAKNTVYLQMNSLKPEDTAVYYCAAVPVHTGSLYWGFTTGYDYWGQGTQVTVSS | low polyreactivity
QVQLVESGGGLVQAGGSLRLSGAASGRTFYQYAMGWYRQAPGKARELVAAISWSDGSTSYADSVKGRFTISRDNAKNTVYLQMNSLKPEDTAGYYCAKDWTGTKAIEYDYWGQGTQVTVSS | low polyreactivity
QVQLVESGGGLVQAGGSLRLSGAASGRTLYGYAMGWYRQAPGKERELVARITGRDGSTDYADSVKGRFTISRDNAKNTVYFPMNSLKPEETAVYSCNARVRFHWYRSDYWGQGTEVTVSS | high polyreactivity
QVQLVESGGGLVQAGGSLRLSRAASGFIFVQNAMVWYRQAPGKERELVASLTSGGTTNYADSVKGRFTISRDNAKNTVYLQMNSLKPEDTAVYYCNARLERTPSLYLYGSWGQGTQVTESS | low polyreactivity
QVQLVESGGGLVQAGGSLRLSRAASGRTFRTYAMGWYRQAPGKERELVAAITSGGNTYYADSVKGRFTISRDNAKNTVYLLMNSLKPDDTAVYYCAAAASGFSRYRSTTWGQGTQGTVSS | high polyreactivity
QVQLVESGGGLVQAGGSLRLSRAASGSIFKYYAMGWYRQAPGKERELVAAITYSGGSTFYADSVKGRFTISRDNAKNTVYLQMNSLKPEDTAVYYCNKVYKSYYWGGYDWGQGTQVTVSS | high polyreactivity
QVQLVESGGGLVQAGGSLRLSSAASGFIFIINAMGWYRQAPGKEREFVAAITGSGGSTYYADSVKGRFTISRDNAKNTVYLQMNSLKPEDTAVYYCANVGPYYSGKVYGRTYYSRYGYWGQGTQVTVSS | low polyreactivity
QVQLVESGGGLVQAGGSLRLSSAASGFIFKYNAMGWYRKAPGKERELGAAITWSGGSTYYADSVKGRFTISRDNAKNTVYLQMNSLKPEDTAVYYCAARPYRTKLIYGYWGQGTHVTVSS | high polyreactivity
QVQLVESGGGLVQAGGSLRLSSAASGFIFPDYAMGWYRQAPGKERELVAAISFRDGSTYYADSVKGRFTISRDNAKNTVYLQMNSLKPEDTAVYFCAVRQVNWFGIGYEDDYWGQGTQVTVSS | low polyreactivity
QVQLVESGGGLVQAGGSLRLSSAASGFIFRGYAMGWYRQAPGKERELVAVISRSGTSTYYADSVKGRFTFSRDNAKNTVYLQMNSLKPEDTAVYYCAVLNYAGKYYYWGQGTQVTVSS | high polyreactivity
QVQLVESGGGLVQAGGSLRLSSAASGFIFSYNAMRWYRQARGKERELVAAITYSDGGTYADSVKARFTISRDNAKNTVDLQMHSLKPEDTAVYYCARRQVLYSRDFEYDYWGQGTLVTVSS | low polyreactivity
QVQLVESGGGLVQAGGSLRLSSAASGFIFTDYAMGWYIEAPGKEREFVAAIDWSGGNTYYADSVKGRFTISRDNAKNTVYLQMNSLKPEDTAVYYCAASGSAREYDYWGQGSQVTVSS | low polyreactivity

Sequence | polyreactivity (PSR sort gate)
QVQLVESGGGLVQAGGSLRLSSAASGFIFVGNAMGWYRQAPGKERELVATISGADSTNYADSVKGRFTISRDNAKNTVYLQMNSLKPEDTAVYDCAKEGYSYFDGNYGPYRYDYWGQGTQVTVSS | low polyreactivity
QVQLVESGGGLVQAGGSLRLSSAASGFILGYNTMGWYRQAPGKESELVAAINLSGASTYYADSVKGRFTISRDNAKNTVYLQMNSLKPEDTAVYYCGVRFYSGPGGYPTTRYYYWGQGTQVTVSS | high polyreactivity
QVQLVESGGGLVQAGGSLRLSSAASGFTFAYYAMGWYRQAPGKERELVAAITRGGGRTFYADSVKGRFTISRDNAKNTVYLQMNSLKPEDTAVYYCAAVKDTTNSRGYGYWGQGTQVTVSS | high polyreactivity
QVQLVESGGGLVQAGGSLRLSSAASGFTFFYYAMGWYRQAPGKERELVAAISASGGSTSYADSVKGRFTISRDNAKNTVYLQMNSLKPEDTAVYYCAARVYSVRSGYYYWGQGTQVTVSS | high polyreactivity
QVQLVESGGGLVQAGGSLRLSSAASGFTFGNNAMVWYRQAPGKEREFVATISRRGGSTYYADSVKGRFTISRDNAKNTVYLLMNSLKPEDTAVYYCAVDRAGIKFAAGYDYWGQGTQVTVSS | high polyreactivity
QVQLVESGGGLVQAGGSLRLSSAASGFTFPAYTMGWSRQAPGKERELVAAITSSGGNTYYADSVKGRFTISRDNAKNTVYLQMNSLKPEDTAVYYCAADWDYPYDEAVSKDIDYDYWGQGTQVTVSS | low polyreactivity
QVQLVESGGGLVQAGGSLRLSSAASGFTFRRYAMGWYRQAPGKERELVAAISIRGGRTYYADSVNGRFTISRDNAKNTVYLQMNSLKPEDTAVNYCAADGVYALDVESDYWGQGTQVTVSS | high polyreactivity
QVQLVESGGGLVQAGGSLRLSSAASGFTFSGYDMGWYRQAPGKERELVAGISSGGVSTTYADSVNGRFTISRDNAKNTVYLQMNSLKQEDTAVYYCNAEWTSFDWGQGTQVTVSS | low polyreactivity
QVQLVESGGGLVQAGGSLRLSSAASGFTVKYNTMGSSRQAPGKEREMVAAISWDGTSTYYADSVKGRFTISRDYAKNTVYLQMNSLKPEDTAVYYCATDAVGAWWSYLSGYGYWGQGTQVTVSS | high polyreactivity
QVQLVESGGGLVQAGGSLRLSSAASGGIFWYYTMGWYRQAPGKERELVAAISWSGGRTYYADSVKGRFTISRDNAKNTVYLQMNSLKPEDTAVYYCAATFRGVLGWYHYEYWGQGTQVTVSS | high polyreactivity
QVQLVESGGGLVQAGGSLRLSSAASGIIFGGSAMGWYRQAPGKEWELVAAISRSGGSTYYADSVKGRFTISRDNPKKTVYLQMNSLKPEDTAVYYCNAVPRRKGFNYWGQGTQVTVSS | high polyreactivity
QVQLVESGGGLVQAGGSLRLSSAASGIIFSTYAMGWYRQAPGKERELVAAITSTGSTNYADSVKGRFTISRDNAKNTVYFQMNSLKPEDTAVYYCNAALNVSGHYPNDYWGQGTQVTVSS | low polyreactivity
QVQLVESGGGLVQAGGSLRLSSAASGITFPRYAMGWYRQAPGKERELVAAITRRGGSTYYADSVKGRFTISRDNAKNTVYLQMNSLKPEDTAVYYCNTDMRYSYYLPGYDYWGQGTQVTVSS | high polyreactivity
QVQLVESGGGLVQAGGSLRLSSAASGITFRGSAMGWYRQAPGKERELVASITNTDSTYYADSVKGRFTISRDNAKHTVYLQMNSLKPEDTAVYYCAARRGRKYGYWGQGTQVTVSS | high polyreactivity
QVQLVESGGGLVQAGGSLRLSSAASGITFYLYAMGWYRQAPGKERELVAGISSGGSTNYADSVKGRFTISRDNAKNTVYLQMNSLKPEDTAVYYCAAKLRGYRYGYWGHGTQVTVSS | high polyreactivity
QVQLVESGGGLVQAGGSLRLSSAASGITFYYYAMGWYRQAPGKERELVAAINWSGTSTYYADSVKGRFTISRDNAKNTVYLQMNSLKPEDTAVYYCNAERGRSFWWAYDYWGQGTQVTVSS | low polyreactivity
QVQLVESGGGLVQAGGSLRLSSAASGLTFHRYAMGWYRQAPGKERELVAGISWSGASTYFADSVKGRFTISRDNAKNTVYLQMNSLKPEDTAVYYCAAVVPGLAYYRHGYWGQGTQVTVSS | high polyreactivity
QVQLVESGGGLVQAGGSLRLSSAASGLTFPIYAMVWYTQAPGKEREFVAVITTSGGSTYYADSVKGRFTISRDNAKNTVFLQMNSLKPEDTSVYYCNARRIRHYYWGQGTQVTVSS | high polyreactivity
QVQLVESGGGLVQAGGSLRLSSAASGLTLRTYAMGWYRQETGQERELVAAITSGGGSTYYADSVKGRFTISRDNSKNTVYLQLNSLNQEDTAFYYCAAKPVVRYVSFGYDYWGQGTDVTVSS | high polyreactivity
QVQLVESGGGLVQAGGSLRLSSAASGRIFFHNAMGWCRQAPGKDRELVAAIRSSTGSTYYADSVKGRFTISRDNAKNTVYLQMNSLKPEDNAVYYCAARSYDKYSRRVWGLGYWGQGTQVTVSS | high polyreactivity
QVQLVESGGGLVQAGGSLRLSSAASGRIFRFYAMGWYRQAPGKERELVAAITSGGSTYYADSVKGRFTISRDNAKNTVYLQMNRLKPEDTAVYYCANYYWGQGTQVTVSS | low polyreactivity
